Measurements from the supplement of paper PMC11246515.
± gives the standard deviation of the averaged measurements.

Assay: total protein half-life in vivo (active degradation + dilution); higher = more stable protein
[1] = E. coli NCM3722 delta-clpP delta-lon delta-hslV, growth: N-lim chemostat, doubling time 6 h
[2] = E. coli NCM3722 delta-clpP, growth: N-lim chemostat, doubling time 6 h
[3] = wild type E. coli NCM3722, growth: C-lim chemostat, doubling time 6 h
[4] = wild type E. coli NCM3722, growth: N-lim chemostat, doubling time 6 h
[5] = wild type E. coli NCM3722, growth: N-lim chemostat, doubling time 12 h
[6] = wild type E. coli NCM3722, growth: P-lim chemostat, doubling time 6 h
[7] = wild type E. coli NCM3722, growth: P-lim chemostat, doubling time 12 h
[8] = E. coli NCM3722 delta-hslV, growth: N-lim chemostat, doubling time 6 h
[9] = E. coli NCM3722 delta-smpB, growth: N-lim chemostat, doubling time 6 h
[10] = wild type E. coli NCM3722, growth: C-lim chemostat, doubling time 3 h
[11] = wild type E. coli NCM3722, growth: C-lim chemostat, doubling time 12 h
[12] = E. coli NCM3722 delta-lon, growth: N-lim chemostat, doubling time 6 h

Sequence	total protein half-life in vivo [1] [h]	total protein half-life in vivo [2] [h]	total protein half-life in vivo [3] [h]	total protein half-life in vivo [4] [h]	total protein half-life in vivo [5] [h]	total protein half-life in vivo [6] [h]	total protein half-life in vivo [7] [h]	total protein half-life in vivo [8] [h]	total protein half-life in vivo [9] [h]	total protein half-life in vivo [10] [h]	total protein half-life in vivo [11] [h]	total protein half-life in vivo [12] [h]
MNIYRLSFVSCLVMAMPCAMAVEFNLNVLDKSMRDRIDISLLKEKGVIAPGEYFVSVAVNNNKISNGQKINWQKKGDKTIPCINDSLVDKFGLKPDIRQSLPQIDRCIDFSSRPEMLFNFDQANQQLNISIPQAWLAWHSENWAPPSTWKEGVAGVLMDYNLFASSYRPQDGSSSTNLNAYGTAGINAGAWRLRSDYQLNKTDSEDNHDQSGGISRTYLFRPLPQLGSKLTLGETDFSSNIFDGFSYTGAALASDDRMLPWELRGYAPQISGIAQTNATVTISQSGRVIYQKKVPPGPFIIDDLNQSVQGTLDVKVTEEDGRVNNFQVSAASTPFLTRQGQVRYKLAAGQPRPSMSHQTENETFFSNEVSWGMLSNTSLYGGLLISDDDYHSAAMGIGQNMLWLGALSFDVTWASSHFDTQQDERGLSYRFNYSKQVDATNSTISLAAYRFSDRHFHSYANYLDHKYNDSDAQDEKQTISLSVGQPITPLNLNLYANLLHQTWWNADASTTANITAGFNVDIGDWRDISISTSFNTTHYEDKDRDNQIYLSISLPFGNGGRVGYDMQNSSHSTIHRMSWNDTLDERNSWGMSAGLQSDRPDNGAQVSGNYQHLSSAGEWDISGTYAASDYSSVSSSWSGSFTATQYGAAFHRRSSTNEPRLMVSTDGVADIPVQGNLDYTNHFGIAVVPLISSYQPSTVAVNMNDLPDGVTVAENVIKETWIEGAIGYKSLASRSGKDVNVIIRNASGQFPPLGADIRQDDSGISVGMVGEEGHAWLSGVAENQLFTVVWGEQSCIIHLPERLEDTTKRLILPCH	3.41 ± 0.16	2.97	4.23	2.94	3.79	3.94	11 ± 0.78					
MNKAKRLEILTRLRENNPHPTTELNFSSPFELLIAVLLSAQATDVSVNKATAKLYPVANTPAAMLELGVEGVKTYIKTIGLYNSKAENIIKTCRILLEQHNGEVPEDRAALEALPGVGRKTANVVLNTAFGWPTIAVDTHIFRVCNRTQFAPGKNVEQVEEKLLKVVPAEFKVDCHHWLILHGRYTCIARKPRCGSCIIEDLCEYKEKVDI [P0AB83]	5.59 ± 0.65	5.67 ± 0.41	5.58 ± 0.078	5.79 ± 0.092	11.95 ± 0.045	5.88 ± 0.55	10.9 ± 0.86	5.9 ± 0.36	5.611 ± 0.039	3.22 ± 0.093	10.7 ± 0.51	
MNKETQPIDRETLLKEANKIIREHEDTLAGIEATGVTQRNGVLVFTGDYFLDEQGLPTAKSTAVFNMFKHLAHVLSEKYHLVD [P0AB61]	5.24 ± 0.27	3.59	4.89 ± 0.3	2.5 ± 0.063	4.72	6.02		3.12 ± 0.036	2.91 ± 0.23	2.64	9.62 ± 3.9	3.65 ± 0.14
MNKFEDIRGVAFDLDGTLVDSAPGLAAAVDMALYALELPVAGEERVITWIGNGADVLMERALTWARQERATQRKTMGKPPVDDDIPAEEQVRILRKLFDRYYGEVAEEGTFLFPHVADTLGALQAKGLPLGLVTNKPTPFVAPLLEALDIAKYFSVVIGGDDVQNKKPHPDPLLLVAERMGIAPQQMLFVGDSRNDIQAAKAAGCPSVGLTYGYNYGEAIDLSQPDVIYQSINDLLPALGLPHSENQESKND	3.53 ± 0.37	3.12 ± 0.096	5.56 ± 0.92	2.87 ± 0.17	4.01 ± 0.23	4.14 ± 1	10.5 ± 1.2	2.83	3.05 ± 0.14	3.21 ± 0.34	8.69 ± 0.53	4.24 ± 1.1
